In patent US20250262210A1 (TRUSTEES OF COLUMBIA UNIVERSITY IN THE CITY OF NEW YORK, published 2025):

Tests used:
ATAD2 = target: T1, ATAD2 (human, UniProt Q6PL18 1-1390, limits assumed); experiment: IP/MS, LZTR1 wild type-FLAG, U87
T1 sequence (looked up): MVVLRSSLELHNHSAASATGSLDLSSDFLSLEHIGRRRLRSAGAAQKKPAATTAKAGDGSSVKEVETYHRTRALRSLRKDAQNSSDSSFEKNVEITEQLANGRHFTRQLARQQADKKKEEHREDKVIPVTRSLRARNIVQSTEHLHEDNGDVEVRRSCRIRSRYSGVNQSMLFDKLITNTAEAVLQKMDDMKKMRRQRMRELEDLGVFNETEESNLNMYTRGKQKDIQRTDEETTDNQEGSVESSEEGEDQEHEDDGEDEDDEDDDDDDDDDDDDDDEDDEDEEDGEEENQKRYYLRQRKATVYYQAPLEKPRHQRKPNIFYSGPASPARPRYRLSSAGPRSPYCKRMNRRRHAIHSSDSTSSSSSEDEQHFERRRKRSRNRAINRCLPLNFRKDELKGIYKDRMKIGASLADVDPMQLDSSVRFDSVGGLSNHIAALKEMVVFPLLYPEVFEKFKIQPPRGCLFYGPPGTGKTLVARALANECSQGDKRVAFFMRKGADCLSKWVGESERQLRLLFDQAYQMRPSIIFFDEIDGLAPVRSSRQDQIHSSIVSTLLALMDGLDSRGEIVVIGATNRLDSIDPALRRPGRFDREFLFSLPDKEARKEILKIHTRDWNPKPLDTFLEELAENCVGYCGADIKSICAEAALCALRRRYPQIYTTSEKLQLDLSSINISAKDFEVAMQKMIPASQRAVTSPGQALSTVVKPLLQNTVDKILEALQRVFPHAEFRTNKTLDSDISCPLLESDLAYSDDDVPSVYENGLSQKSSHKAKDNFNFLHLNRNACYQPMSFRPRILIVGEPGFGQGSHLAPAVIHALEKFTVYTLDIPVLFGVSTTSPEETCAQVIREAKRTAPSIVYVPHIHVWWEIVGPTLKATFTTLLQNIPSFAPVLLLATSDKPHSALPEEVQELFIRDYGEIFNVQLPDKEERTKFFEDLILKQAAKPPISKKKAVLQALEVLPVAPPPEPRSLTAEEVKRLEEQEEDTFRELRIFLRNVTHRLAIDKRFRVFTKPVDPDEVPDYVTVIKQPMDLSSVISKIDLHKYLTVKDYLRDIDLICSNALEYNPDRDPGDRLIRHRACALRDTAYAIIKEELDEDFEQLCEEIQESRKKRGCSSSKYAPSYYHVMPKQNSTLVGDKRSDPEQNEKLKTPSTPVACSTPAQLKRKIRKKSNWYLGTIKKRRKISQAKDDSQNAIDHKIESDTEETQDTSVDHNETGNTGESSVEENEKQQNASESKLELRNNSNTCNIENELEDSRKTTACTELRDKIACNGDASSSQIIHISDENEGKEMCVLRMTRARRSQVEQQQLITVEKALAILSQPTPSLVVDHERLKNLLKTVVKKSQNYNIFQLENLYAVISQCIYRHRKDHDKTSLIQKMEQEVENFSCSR
In short: (§1)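 Gel slices were reduced with 5 mM DTT, alkylated with 11 mM IAA and digested overnight at 37° C. with trypsin. Peptides were analysed on an Orbitrap Fusion Tribrid by LC-MS/MS.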

KIAA1217 = KIAA1217 (human, UniProt Q5T5P2 1-1943, limits assumed); experiment: IP/MS, LZTR1 wild type-FLAG, U87
Sequence of KIAA1217 (Q5T5P2 whole entry): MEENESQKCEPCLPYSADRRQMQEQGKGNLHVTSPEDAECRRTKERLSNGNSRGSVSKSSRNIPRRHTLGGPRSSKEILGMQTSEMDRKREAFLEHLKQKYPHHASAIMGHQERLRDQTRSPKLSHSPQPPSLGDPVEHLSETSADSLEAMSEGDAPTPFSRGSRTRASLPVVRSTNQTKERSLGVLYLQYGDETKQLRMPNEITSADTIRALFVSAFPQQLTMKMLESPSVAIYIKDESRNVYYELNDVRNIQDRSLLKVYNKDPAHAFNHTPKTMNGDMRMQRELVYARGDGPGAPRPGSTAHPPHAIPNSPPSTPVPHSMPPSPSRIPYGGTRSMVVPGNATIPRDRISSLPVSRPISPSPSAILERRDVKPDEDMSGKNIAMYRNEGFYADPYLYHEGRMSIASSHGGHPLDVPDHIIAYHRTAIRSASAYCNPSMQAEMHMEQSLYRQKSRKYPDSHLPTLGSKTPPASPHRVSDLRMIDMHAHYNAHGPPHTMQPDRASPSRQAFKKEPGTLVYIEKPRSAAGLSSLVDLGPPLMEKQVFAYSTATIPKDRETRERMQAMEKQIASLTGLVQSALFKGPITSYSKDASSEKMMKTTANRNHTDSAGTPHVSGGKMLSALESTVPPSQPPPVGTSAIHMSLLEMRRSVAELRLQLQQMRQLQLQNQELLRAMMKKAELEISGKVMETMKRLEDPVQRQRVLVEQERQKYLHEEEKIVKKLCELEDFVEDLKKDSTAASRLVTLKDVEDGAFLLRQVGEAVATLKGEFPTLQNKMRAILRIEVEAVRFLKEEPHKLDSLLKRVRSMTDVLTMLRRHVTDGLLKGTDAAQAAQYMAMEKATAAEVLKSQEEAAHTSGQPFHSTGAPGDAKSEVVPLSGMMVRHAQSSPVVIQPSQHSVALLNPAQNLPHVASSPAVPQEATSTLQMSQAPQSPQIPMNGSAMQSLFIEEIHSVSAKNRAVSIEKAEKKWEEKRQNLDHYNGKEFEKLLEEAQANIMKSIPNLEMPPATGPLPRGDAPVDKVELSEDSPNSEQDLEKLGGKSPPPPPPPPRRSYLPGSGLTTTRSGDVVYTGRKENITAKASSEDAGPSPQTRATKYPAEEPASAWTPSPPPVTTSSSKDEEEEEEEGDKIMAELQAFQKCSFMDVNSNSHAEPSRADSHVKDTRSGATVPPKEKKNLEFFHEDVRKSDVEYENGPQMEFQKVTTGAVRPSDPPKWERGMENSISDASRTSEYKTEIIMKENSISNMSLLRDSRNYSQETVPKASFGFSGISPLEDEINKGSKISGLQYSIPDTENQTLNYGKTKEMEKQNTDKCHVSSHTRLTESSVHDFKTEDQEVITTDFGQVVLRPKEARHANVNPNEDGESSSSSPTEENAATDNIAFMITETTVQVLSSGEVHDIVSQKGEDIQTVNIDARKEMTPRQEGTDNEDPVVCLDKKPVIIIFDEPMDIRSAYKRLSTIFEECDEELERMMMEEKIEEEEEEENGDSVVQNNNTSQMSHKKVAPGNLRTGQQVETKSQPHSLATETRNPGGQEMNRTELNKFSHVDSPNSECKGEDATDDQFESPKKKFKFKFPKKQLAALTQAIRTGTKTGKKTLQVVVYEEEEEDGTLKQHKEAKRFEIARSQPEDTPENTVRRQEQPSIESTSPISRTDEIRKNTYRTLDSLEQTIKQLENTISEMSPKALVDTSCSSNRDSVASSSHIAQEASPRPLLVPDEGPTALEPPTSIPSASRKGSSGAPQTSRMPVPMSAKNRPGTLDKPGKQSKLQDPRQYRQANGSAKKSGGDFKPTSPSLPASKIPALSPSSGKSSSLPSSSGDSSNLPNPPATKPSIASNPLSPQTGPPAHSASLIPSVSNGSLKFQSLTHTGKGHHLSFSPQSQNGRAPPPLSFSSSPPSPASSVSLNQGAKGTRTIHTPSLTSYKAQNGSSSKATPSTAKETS
In short: as §1

B1: LZTR1-FLAG (other, human, UniProt Q8N653 1-840, looked up)
chain: MAGPGSTGGQIGAAALAGGARSKVAPSVDFDHSCSDSVEYLTLNFGPFETVHRWRRLPPCDEFVGARRSKHTVVAYKDAIYVFGGDNGKTMLNDLLRFDVKDCSWCRAFTTGTPPAPRYHHSAVVYGSSMFVFGGYTGDIYSNSNLKNKNDLFEYKFATGQWTEWKIEGRLPVARSAHGATVYSDKLWIFAGYDGNARLNDMWTIGLQDRELTCWEEVAQSGEIPPSCCNFPVAVCRDKMFVFSGQSGAKITNNLFQFEFKDKTWTRIPTEHLLRGSPPPPQRRYGHTMVAFDRHLYVFGGAADNTLPNELHCYDVDFQTWEVVQPSSDSEVGGAEVPERACASEEVPTLTYEERVGFKKSRDVFGLDFGTTSAKQPTQPASELPSGRLFHAAAVISDAMYIFGGTVDNNIRSGEMYRFQFSCYPKCTLHEDYGRLWESRQFCDVEFVLGEKEECVQGHVAIVTARSRWLRRKITQARERLAQKLEQEAAPVPREAPGVAAGGARPPLLHVAIREAEARPFEVLMQFLYTDKIKYPRKGHVEDVLLIMDVYKLALSFQLCRLEQLCRQYIEASVDLQNVLVVCESAARLQLSQLKEHCLNFVVKESHFNQVIMMKEFERLSSPLIVEIVRRKQQPPPRTPLDQPVDIGTSLIQDMKAYLEGAGAEFCDITLLLDGHPRPAHKAILAARSSYFEAMFRSFMPEDGQVNISIGEMVPSRQAFESMLRYIYYGEVNMPPEDSLYLFAAPYYYGFYNNRLQAYCKQNLEMNVTVQNVLQILEAADKTQALDMKRHCLHIIVHQFTKVSKLPTLRSLSQQLLLDIIDSLASHISDKQCAELGADI
notes: Expressed in HEK 293T, HeLa or U87 cells; used as cell lysate; also called LZTR1 wild type-FLAG; LZTR1 WT; not shown: FLAG tag at the C-terminus
ATAD2
  binding result: binds
KIAA1217
  binding result: binds
